Here are results for three molecules from patent US8394929B2, “Nogo receptor-mediated blockade of axonal growth” (Yale University, priority 2000, dated 2013).

Test [1] concerns TPA-induced growth cone collapse. Put plainly: TPA-induced growth cone collapse in E12 chick DRG explants. In kind it is cell-based. The protocol:
(§1) For further testing, a synthetic peptide containing amino acid residues #1055-1094 of hNgR, acetylated at the […] was used [hereinafter “Peptide 140”]. […] Antagonist of Nogo-66 inhibitory activity may act by competing for, and thereby blocking NgR binding sites. To determine the antagonistic activity of Peptide 140, the above synthetic form of the peptide was added to E12 chick DRG explant cultures approximately 10 min before application of various concentrations of GST-NogoA (residues #1055-1120), TPA or Sema3A. 30 min later, cultures were fixed and growth cone collapse was assessed following staining with rhodamine-phalloidin.

Test [2] deals with Sema3A-induced growth cone collapse. Put plainly: Sema3A-induced growth cone collapse in chick DRG cultures. The format is cell-based.
Text: The Nogo-66 receptor protein is necessary for Nogo-66 action and not simply a binding site with a function unrelated to inhibition of axonal outgrowth. A first prediction is that phosphoinositol specific-Phospholipase C (PI-PLC) treatment to remove glycophosphatidylinositol (GPI)-linked proteins from the neuronal surface will render neurons insensitive to Nogo-66. This prediction holds true for chick E13 dorsal root ganglion neurons; PI-PLC treatment abolishes both AP-Nogo binding and GST-Nogo-66-induced growth cone collapse (FIG. 10a-c). As a control, Sema3A responses in the parallel cultures are not altered by PI-PLC treatment.
as §1

Test [3] relates to NGF-differentiated PC12 cells. Briefly: Axon outgrowth from NGF-differentiated PC12 cells. In kind it is cell-based. As for the experimental part:
For all experiments involving cell culture, the following methods were employed. The culture of embryonic chick E10 and E12 dorsal root ganglion explants and dissociated neurons utilized methods described for E7 dorsal root ganglion cultures (Takahashi et al., (1998) Nature Neurosci. 1, 487-493; Takahashi et al., (1999) Cell 99, 59-69; Goshima et al., (1995) Nature 376, 509-514; Jin & Strittmatter, (1997) J. Neurosci. 7, 6256-6263). NGF-differentiated PC12 cells were cultured as described (Strittmatter et al., (1994) J. Neurosci. 14, 2327-2338). Embryonic spinal cord explants (rat E10 or chick E5) were cultured for 7-14 days in the presence of PDGF-AA to induce differentiation of some cells into mature oligodendrocytes (Vartanian et al., (1999) Proc. Natl. Acad. Sci. USA 96, 731-735). The procedure for growth cone collapse assays is identical to that for analysis of Sema3A-induced growth cone collapse (Takahashi et al., (1998) Nature Neurosci. 1, 487-493; Takahashi et al., (1999) Cell 99, 59-69; Goshima et al., (1995) Nature 376, 509-514; Jin & Strittmatter, (1997) J. Neurosci. 17, 6256-6263). The method for analysis of total neurite outgrowth has also been described (Goshima et al., (1995) Nature 376, 509-514; Jin & Strittmatter, (1997) J. Neurosci. 17, 6256-6263; Strittmatter et al., (1994) J. Neurosci. 14, 2327-2338). […]

The subject of test [4] is chick E7 retinal ganglion cells. Put plainly: Growth cone collapse in uninfected chick E7 retinal ganglion cells. In kind it is cell-based. Particulars: neurons lacking the Nogo-66 receptor. The source says: Both dorsal root ganglion and retinal neurons from E7 chick embryos were examined. The Nogo responses in the dorsal root ganglion neurons from this developmental stage are weak but slight responses can be detected in some cultures (data not shown).
For some receptor systems, such soluble receptor ligand complexes can block signaling by creating an ineffective interaction. For example, the soluble ectodomain of Trk serves to block neurotrophin signaling and has been extensively used for this purpose (Shelton et al., (1995) J. Neurosci. 15, 477-491). Alternatively, the Nogo-66/NgR-ecto soluble complex may bind to and stimulate the presumed second transmembrane NgR subunit. There is precedence for this type of effect from studies of GDNF family receptors (Cacalano et al., (1998) Neuron 21, 53-62).

The target of test [5] is T1, mouse NgR (Mus musculus, UniProt Q99PI8).
T1 construct: expressed in transfected cells; host or cells: COS-7
T1 sequence (Q99PI8 27-473): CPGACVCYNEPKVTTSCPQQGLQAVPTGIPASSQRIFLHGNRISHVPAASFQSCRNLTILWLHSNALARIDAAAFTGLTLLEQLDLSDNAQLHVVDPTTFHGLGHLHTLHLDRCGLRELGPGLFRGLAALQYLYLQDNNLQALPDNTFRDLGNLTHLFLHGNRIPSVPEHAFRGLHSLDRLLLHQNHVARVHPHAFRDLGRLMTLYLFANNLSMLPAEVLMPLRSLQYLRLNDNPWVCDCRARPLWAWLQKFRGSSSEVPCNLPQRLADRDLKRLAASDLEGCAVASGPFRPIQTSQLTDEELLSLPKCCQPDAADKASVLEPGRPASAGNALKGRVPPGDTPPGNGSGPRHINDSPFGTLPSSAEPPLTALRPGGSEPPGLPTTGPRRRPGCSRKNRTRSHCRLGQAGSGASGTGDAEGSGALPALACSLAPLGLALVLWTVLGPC
Briefly: AP-fusion protein binding to COS-7 cells expressing mouse NgR. As for the experimental part: To determine if AP-fused deletion mutants of Nogo-66 bind mouse NgR (“mNgR”), COS-7 cells were transfected with a plasmid encoding the mouse NgR sequence ligated into pcDNA3.1. 48 hours after transfection, cells were washed with HBH (Hanks balanced salt solution containing 20 mM sodium Hepes, pH 7.05, and 1 mg ml^−1 bovine serum albumin) and then incubated with condition medium containing one of the AP-fusion proteins described above for 2 hours at 37° C. Cells were then washed, fixed, and left in HBH at 67° C. for 14-16 h to inactivate endogenous AP. AP-fusion protein binding to NgR expressing COS-7 cells was detected with the substrates NBT and BCIP (FIG. 13b).
To determine whether mNgR or mNgR deletion mutants bound to hNogo-A (1055-1120), wtNgR or mNgR deletion mutants were transfected into COS-7 cells. Forty-eight hours after the transfection, the transfected COS-7 cells were washed with hanks balanced salt solution containing 20 mM sodium HEPES, pH 7.05, and 1 mg/ml bovine serum albumin (BSA) [hereinafter “HBH”]. Cells were then incubated for 2 hours at 23° C. with a conditioned medium enriched with purified AP-hNogo-A (1055-1120) diluted in HBH. AP-fusion protein was detected as previously described for AP-Sema3A (Takahashi et al., Nature Neurosci. 1:487-493, 1998).

Read-outs that look alike come from different tables or passages of the source.

As for “Peptide 140: synthetic peptide of amino acids #1055-1094 of the human NogoA protein, acetylated and amidated at the termini (Ac-RIYKGVIQAIQKSDEGHPFRAYLESEVAISEELVQKYSNS-NH2; UniProt Q9NQC3 1055-1094, looked up, fragment)”, the “effect on TPA-induced growth cone collapse (in words)” value in test [1] is listed as “no significant reduction in collapse”. The “effect on Sema3A-induced growth cone collapse (in words)” value in test [2] is “no significant reduction in collapse”.

B1: GST-Nogo: GST fusion protein of the 66 amino acid lumenal-extracellular fragment of Nogo-A, expressed in E. coli (protein)
chain: RIYKGVIQAIQKSDEGHPFRAYLESEVAISEELVQKYSNSALGHVNCTIKELRRLFLVDDLVDSLK
modifications: also: GST fusion protein
notes: GST fusion protein of the 66 amino acid lumenal-extracellular fragment of Nogo-A, expressed in E. coli
Take B1: in test [3] (bound to substrate surfaces), the “axonal outgrowth (in words)” value is “reduced to undetectable levels”. In addition, in test [3] (soluble, nM concentrations), the “axon outgrowth (in words)” value was “blocked”. In test [4], the “growth cone collapse (in words)” value is given as “uniformly insensitive”.

B2: AP-Nogo: fusion protein of His6 tag, placental alkaline phosphatase (AP) and the 66 amino acid active domain of Nogo (protein)
chain: HHHHHHIIPVEEENPDFWNREAAEALGAAKKLQPAQTAAKNLIIFLGDGMGVSTVTAARILKGQKKDKLGPEIPLAMDRFPYVALSKTYNVDKHVPDSGATATAYLCGVKGNFQTIGLSAAARFNQCNTTRGNEVISVMNRAKKAGKSVGVVTTTRVQHASPAGTYAHTVNRNWYSDADVPASARQEGCQDIATQLISNMDIDVILGGGRKYMFRMGTPDPEYPDDYSQGGTRLDGKNLVQEWLAKRQGARYVWNRTELMQASLDPSVTHLMGLFEPGDMKYEIHRDSTLDPSLMEMTEAALRLLSRNPRGFFLFVEGGRIDHGHHESRAYRALTETIMFDDAIERAGQLTSEEDTLSLVTADHSHVFSFGGYPLRGSSIFGLAPGKARDRKAYTVLLYGNGPGYVLKDGARPDVTESESGSPEYRQQSAVPLDEETHAGEDVAVFARGPQAHLVHGVQEQTFIAHVMAFAACLEPYTACDLAPPAGTTDAAHPGRIYKGVIQAIQKSDEGHPFRAYLESEVAISEELVQKYSNSALGHVNCTIKELRRLFLVDDLVDSLK
For the molecule B2, the figures for the “binding to NgR expressing COS-7 cells (in words)” value in test [5] and in test [5] (listed as AP-hNogo-A (1055-1120)) were “selective binding” and “bound”, respectively.
